As a reminder, the Kd is the constant that tells how readily two partners part at equilibrium. The term EC50 denotes the concentration at which the effect is half-maximal. High values mean a need for much substance, low ones an effect from little substance.

In test [1] the target is T1, human VISTA expressed on the cell surface (HEK293 cells transfected with human VISTA cDNA); native on human … (human, UniProt Q9H7M9 33-311).
T1 construct: whole, on cells; also called PD-1H
T1 sequence (looked up): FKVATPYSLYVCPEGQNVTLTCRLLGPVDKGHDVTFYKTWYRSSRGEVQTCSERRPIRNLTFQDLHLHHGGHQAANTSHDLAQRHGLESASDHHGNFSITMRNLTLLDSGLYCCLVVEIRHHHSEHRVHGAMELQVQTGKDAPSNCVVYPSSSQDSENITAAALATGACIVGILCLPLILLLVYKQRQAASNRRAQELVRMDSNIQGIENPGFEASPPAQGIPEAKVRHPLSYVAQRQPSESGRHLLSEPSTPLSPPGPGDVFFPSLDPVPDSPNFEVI
Description: method not stated; table follows flow cytometry on HEK293 cells transfected with human VISTA.

In test [2] the target is T1, human VISTA expressed on the cell …. Description: flow cytometry on HEK293 cells transfected with human VISTA, detection with anti-human Ig; EC50 table under the graph. Here is the method: In order to examine the ability of the 7 humanized anti-VISTA antibodies to bind to cell surface expressed VISTA, HEK293 cells were transfected with human VISTA cDNA for 24 hours using Fugene 6 transfection reagent. Cells were harvested by trypsinization, re-suspended in FACS buffer and plated in 96-well plates. Cells were incubated with the concentration of anti-VISTA antibodies indicated in FIG. 5 for 30 minutes on ice. Antibodies were detected using anti-human Ig antibodies and binding was assessed on the MACSQuant flow cytometer (FIG. 5).

B1: humanized anti-VISTA antibody 14F1-HZD2 (antibody, human IgG1, kappa, V domains shown)
VH: EVQLLESGGGLVQPGGSLRLSCAASGFSFSSSYYMCWVRQAPGKGLEWVACFYAGFSGSTYYASWAKGRFTISRDNSKNTLYLQMNSLRAEDTAVYYCAKGASTYGYTGYDYAGDYFILWQPGTLVTVSS
VL: DIQMTQSPSSVSASVGDRVTITCQASQNIYSNLAWYQQKPGKAPKLLIYAASNLASGVPSRFSGSGSGTDFTLTISSLQPEDFATYYCQSAYYSSSADSYNAFGGGTKVEIKR
notes: kappa light chain
On to B1, for which, in test [1], the Kd was found to be 2.19 nM. In addition, the EC50 in test [2] was 2.95 nM.

B2: humanized anti-VISTA antibody 41A11-HZD2 (antibody, human IgG1, kappa, V domains shown)
VH: EVQLLESGGGLVQPGGSLRLSCAASGFSFSSSYYMCWVRQAPGKGLEWVGCFYAGFSGGTYYASWAKGRFTISRDNSKNTLYLQMNSLRAEDTAVYYCAKGANTYGYTGYDYAGDYFTLWGQGTLVTVSS
VL: DIQMTQSPSTLSASVGDRVTITCQASQNIGSNLAWYQQKPGKAPKLLIYAASNLESGVPSRFSGSGSGTEFTLTISSLQPDDFATYYCQSAYYSSVDSYNTFGGGTKVEIKR
notes: kappa light chain
B2: binding in test [1] was characterised by a dissociation constant (Kd) of 1.35 nM. Further, in test [2], the EC50 turned out to be 1.84 nM.

B3: humanized anti-VISTA antibody 2D12-HZD3 (antibody, human IgG1, kappa, V domains shown)
VH: EVQLVESGGGLVQPGGSLRLSCAASGIDLSSYAMGWVRQAPGKGLEWVGIISSSGSAFYASWAKGRFTISRDNSKNTLYLQMNSLRAEDTAVYYCARHYAGYTTPYYFNFWGQGTLVTVSS
VL: AIQMTQSPSSLSASVGDRVTITCQASENIYSNLAWYQQKPGKAPKVLIYAASDLASGVPSRFSGSGSGTDFTLTISSLQPEDFATYYCQQGFSSSNVDNAFGGGTKVEIKR
notes: kappa light chain
B3 gave a Kd in test [1] of 1.31 nM. In test [2], the EC50 turned out to be 1.75 nM.

B4: humanized anti-VISTA antibody 14D8-HZD2 (antibody, human IgG1, kappa, V domains shown)
VH: EVQLVESGGGLVQPGGSLRLSCAASGFDLSSAYYMCWVRQAPGKGLEWVGCIATGSGSTYYASWAKGRFTISRDNSKNTLYLQMNSLRAEDTAVYYCARAPYYSYDGYDYALNLWGQGTLVTVSS
VL: DIQMTQSPSSVSASVGDRVTITCQASEDIVTYLAWYQQKPGKAPKLLIYAASTLASGVPSRFSGSGSGTDFTLTISSLQPEDFATYYCQQTYNYADTDNAFGGGTKVEIKR
notes: kappa light chain
Turning to B4, the Kd in test [1] was 2.2 nM. For the same molecule, the EC50 in test [2] was 2.83 nM.

B5: humanized anti-VISTA antibody 29G7-HZD2 (antibody, human IgG1, kappa, V domains shown)
VH: EVQLVESGGGLVQPGGSLRLSCAASGFSLSSYAMGWVRQAPGKGLEWVGIIIVSGNIYYASWAKGRFTISRDNSKNTLYLQMNSLRAEDTAVYYCARGDGYTYGLWGQGTLVTVSS
VL: DIQMTQSPSTLSASVGDRVTITCQASQSVYSRYLAWYQQKPGKAPKLLIYSASTLASGVPSRFSGSGSGTEFTLTISSLQPDDFATYYCQGTFYIPDYIDGFGGGTKVEIKR
notes: kappa light chain
On to B5, for which the Kd in test [1] was determined as 0.281 nM. The same molecule showed an EC50 in test [2] of 0.463 nM.

B6: humanized anti-VISTA antibody 29G7-HZD4 (antibody, human IgG1, kappa, V domains shown)
VH: EVQLVESGGGLVQPGGSLRLSCAASGFSLSSYAMGWVRQAPGKGLEWVGIIIVSGNIYYASWAKGRFTISRDNSKNTLYLQMNSLRAEDTAVYYCARGDGYTYGLWGQGTLVTVSS
VL: EIVMTQSPATLSLSPGERATLSCQASQSVYSRYLAWYQQKPGQAPRLLIYSASTLASGIPARFSGSGSGTDFTLTISSLQPEDFAVYYCQGTFYIPDYIDGFGGGTKVEIKR
notes: kappa light chain
In test [1], B6 yielded a Kd of 0.295 nM. In test [2], the EC50 amounted to 0.477 nM.

B7: humanized anti-VISTA antibody 3A5-HZD (antibody, human IgG1, kappa, V domains shown)
VH: EVQLVESGGGLVQPGGSLRLSCAASGFSLSSENWICWVRQAPGKGLEWVGCICGANGGSAYHANWVNGRFTISRDNSKNTLYLQMNSLRAEDTAVYYCARAAGVSNAYYFDLWGQGTLVTVSS
VL: DIQMTQSPSSVSASVGDRVTITCQASQYIYINLAWYQQKPGKAPKLLIYDASDLASGVPSRFSGSGSGTDFTLTISSLQPEDFATYYCQCTYGGSTYGNAFGGGTKVEIKR
notes: kappa light chain
On to B7, for which the Kd in test [1] was found to be 0.293 nM. The molecule further had an EC50 in test [2] of 0.483 nM.

The values are drawn from US20210139589A1 (APEXIGEN, published 2021).
